Source: patent publication US9745607B2, “Methods of producing 6-carbon chemicals using 2,6-diaminopimelate as precursor to 2-aminopimelate” (INVISTA North America S.á r.l., priority 2014, dated 2017)

What was measured:
Format in all cases: biochemical
[1] = ω-transaminase enzyme activity assay, reverse direction (6-aminohexanoate to adipate semialdehyde); settings: cell free extract, 10 mM 6-aminohexanoate, 10 mM pyruvate, pH 7.5, 25° C., 24 h, RP-HPLC, against the empty vector control
Method: (§1) A nucleotide sequence encoding a His-tag was added to the genes from Chromobacterium violaceum, Pseudomonas aeruginosa, Pseudomonas syringae, Rhodobacter sphaeroides, and Vibrio Fluvialis encoding the ω-transaminases of SEQ ID NOs: 8, 9, 10, 11 and 13, respectively (see FIG. 20E and FIG. 20F) such that N-terminal HIS tagged ω-transaminases could be produced. Each of the resulting modified genes was cloned into a pET21a expression vector under control of the T7 promoter and each expression vector was transformed into a BL21[DE3] E. coli host. The resulting recombinant E. coli strains were cultivated at 37° C. in a 250 mL shake flask culture containing 50 mL LB media and antibiotic selection pressure, with shaking at 230 rpm. Each culture was induced overnight at 16° C. using 1 mM IPTG.
(§2) The pellet from each induced shake flask culture was harvested via centrifugation. Each pellet was resuspended and lysed via sonication. The cell debris was separated from the supernatant via centrifugation and the cell free extract was used immediately in enzyme activity assays.
Enzyme activity assays in the reverse direction (i.e., 6-aminohexanoate to adipate semialdehyde) were performed in a buffer composed of a final concentration of 50 mM HEPES buffer (pH=7.5), 10 mM 6-aminohexanoate, 10 mM pyruvate and 100 μM pyridoxyl 5′ phosphate. Each enzyme activity assay reaction was initiated by adding cell free extract of the ω-transaminase gene product or the empty vector control to the assay buffer containing the 6-aminohexanoate and incubated at 25° C. for 24 h, with shaking at 250 rpm. The formation of L-alanine from pyruvate was quantified via RP-HPLC.

[2] = ω-transaminase enzyme activity assay, forward direction (adipate semialdehyde to 6-aminohexanoate); settings: cell free extract, 10 mM adipate semialdehyde, 10 mM L-alanine, pH 7.5, 25° C., 4 h, RP-HPLC, against the empty vector control
Method: as §1, §2
Enzyme activity in the forward direction (i.e., adipate semialdehyde to 6-aminohexanoate) was confirmed for the transaminases of SEQ ID NO 8, SEQ ID NO 9, SEQ ID NO 10, SEQ ID NO 11 and SEQ ID NO 13. Enzyme activity assays were performed in a buffer composed of a final concentration of 50 mM HEPES buffer (pH=7.5), 10 mM adipate semialdehyde, 10 mM L-alanine and 100 μM pyridoxyl 5′ phosphate. Each enzyme activity assay reaction was initiated by adding a cell free extract of the ω-transaminase gene product or the empty vector control to the assay buffer containing the adipate semialdehyde and incubated at 25° C. for 4 h, with shaking at 250 rpm. The formation of pyruvate was quantified via RP-HPLC.

[3] = carboxylate reductase enzyme activity assay (adipate semialdehyde to hexanedial); settings: purified enzyme enhanced by the gene product of sfp, 2 mM adipate semialdehyde, pH 7.5, room temperature, 20 min, against the empty vector control
Method: The N-terminal His-tagged carboxylate reductase of SEQ ID NO 7 (see Example 2 and FIG. 20E) was assayed using adipate semialdehyde as substrate. The enzyme activity assay was performed in triplicate in a buffer composed of a final concentration of 50 mM HEPES buffer (pH=7.5), 2 mM adipate semialdehyde, 10 mM MgCl2, 1 mM ATP and 1 mM NADPH. The enzyme activity assay reaction was initiated by adding purified carboxylate reductase and phosphopantetheine transferase or the empty vector control to the assay buffer containing the adipate semialdehyde and then incubated at room temperature for 20 min. The consumption of NADPH was monitored by absorbance at 340 nm.

Row | ω-transaminase activity: acceptance of 6-aminohexanoate as substrate (formation of L-alanine from pyruvate) [1] | Molecule | ω-transaminase activity: acceptance of adipate semialdehyde as substrate (formation of pyruvate from L-alanine) [2] | carboxylate reductase activity: acceptance of adipate semialdehyde as substrate (consumption of NADPH, absorbance at 340 nm) [3]
1 | accepted 6-aminohexanote as substrate | SEQ ID NO 11: Rhodobacter sphaeroides ω-transaminase, N-terminal HIS tagged | accepted adipate semialdehyde as substrate | 
2 | accepted 6-aminohexanote as substrate | SEQ ID NO 8: Chromobacterium violaceum ω-transaminase, N-terminal HIS tagged (protein, listed as Chromobacterium violaceum, N-terminal His tag, Chromobacterium violaceum ω-transaminase, N-terminal HIS tagged) MQKQRTTSQWRELDAAHHLHPFTDTASLNQAGARVMTRGEGVYLWDSEGNKIIDGMAGLWCVNVGYGRKDFAEAARRQMEELPFYNTFFKTTHPAVVELSSLLAEVTPAGFDRVFYTNSGSESVDTMIRMVRRYWDVQGKPEKKTLIGRWNGYHGSTIGGASLGGMKYMHEQGDLPIPGMAHIEQPWWYKHGKDMTPDEFGVVAARWLEEKILEIGADKVAAFVGEPIQGAGGVIVPPATYWPEIERICRKYDVLLVADEVICGFGRTGEWFGHQHFGFQPDLFTAAKGLSSGYLPIGAVFVGKRVAEGLIAGGDFNHGFTYSGHPVCAAVAHANVAALRDEGIVQRVKDDIGPYMQKRWRETFSRFEHVDDVRGVGMVQAFTLVKNKAKRELFPDFGEIGTLCRDIFFRNNLIMRACGDHIVSAPPLVMTRAEVDEMLAVAERCLEEFEQTLKARGLA | accepted adipate semialdehyde as substrate | 
3 | accepted 6-aminohexanote as substrate | SEQ ID NO 10: Pseudomonas syringae ω-transaminase, N-terminal HIS tagged (protein, listed as Pseudomonas syringae, N-terminal His tag, Pseudomonas syringae ω-transaminase, N-terminal HIS tagged) MSANNPQTLEWQALSSEHHLAPFSDYKQLKEKGPRIITRAEGVYLWDSEGNKILDGMSGLWCVAIGYGREELADAASKQMRELPYYNLFFQTAHPPVLELAKAISDIAPEGMNHVFFTGSGSEGNDTMLRMVRHYWALKGQPNKKTIISRVNGYHGSTVAGASLGGMTYMHEQGDLPIPGVVHIPQPYWFGEGGDMTPDEFGIWAAEQLEKKILELGVENVGAFIAEPIQGAGGVIVPPDSYWPKIKEILSRYDILFAADEVICGFGRTSEWFGSDFYGLRPDMMTIAKGLTSGYVPMGGLIVRDEIVAVLNEGGDFNHGFTYSGHPVAAAVALENIRILREEKIVERVRSETAPYLQKRLRELSDHPLVGEVRGVGLLGAIELVKDKTTRERYTDKGAGMICRTFCFDNGLIMRAVGDTMIIAPPLVISFAQIDELVEKARTCLDLTLAVLQG | accepted adipate semialdehyde as substrate | 
4 | accepted 6-aminohexanote as substrate | SEQ ID NO 13: Vibrio fluvialis ω-transaminase, N-terminal HIS tagged (protein, listed as Vibrio fluvialis, N-terminal His tag, Vibrio fluvialis ω-transaminase, N-terminal HIS tagged) MNKPQSWEARAETYSLYGFTDMPSLHQRGTVVVTHGEGPYIVDVNGRRYLDANSGLWNMVAGFDHKGLIDAAKAQYERFPGYHAFFGRMSDQTVMLSEKLVEVSPFDSGRVFYTNSGSEANDTMVKMLWFLHAAEGKPQKRKILTRWNAYHGVTAVSASMTGKPYNSVFGLPLPGFVHLTCPHYWRYGEEGETEEQFVARLARELEETIQREGADTIAGFFAEPVMGAGGVIPPAKGYFQAILPILRKYDIPVISDEVICGFGRTGNTWGCVTYDFTPDAIISSKNLTAGFFPMGAVILGPELSKRLETAIEAIEEFPHGFTASGHPVGCAIALKAIDVVMNEGLAENVRRLAPRFEERLKHIAERPNIGEYRGIGFMWALEAVKDKASKTPFDGNLSVSERIANTCTDLGLICRPLGQSVVLCPPFILTEAQMDEMFDKLEKALDKVFAEVA | accepted adipate semialdehyde as substrate | 
5 |  | SEQ ID NO 9: Pseudomonas aeruginosa ω-transaminase, N-terminal HIS tagged (protein, listed as Pseudomonas aeruginosa, N-terminal His tag, Pseudomonas aeruginosa ω-transaminase, N-terminal HIS tagged) MNARLHATSPLGDADLVRADQAHYMHGYHVFDDHRVNGSLNIAAGDGAYIYDTAGNRYLDAVGGMWCTNIGLGREEMARTVAEQTRLLAYSNPFCDMANPRAIELCRKLAELAPGDLDHVFLTTGGSTAVDTAIRLMHYYQNCRGKRAKKHVITRINAYHGSTFLGMSLGGKSADRPAEFDFLDERIHHLACPYYYRAPEGLGEAEFLDGLVDEFERKILELGADRVGAFISEPVFGSGGVIVPPAGYHRRMWELCQRYDVLYISDEVVTSFGRLGHFFASQAVFGVQPDIILTAKGLTSGYQPLGACIFSRRIWEVIAEPDKGRCFSHGFTYSGHPVACAAALKNIEIIEREGLLAHADEVGRYFEERLQSLRDLPIVGDVRGMRFMACVEFVADKASKALFPESLNIGEWVHLRAQKRGLLVRPIVHLNVMSPPLILTREQVDTVVRVLRESIEETVEDLVRAGHR | accepted adipate semialdehyde as substrate | 
6 |  | SEQ ID NO 7: Segniliparus rotundus carboxylate reductase, N-terminal HIS tagged (protein, listed as Segniliparus rotundus, N-terminal His tag, Segniliparus rotundus carboxylate reductase, N-terminal HIS tagged) MTQSHTQGPQASAAHSRLARRAAELLATDPQAAATLPDPEVVRQATRPGLRLAERVDAILSGYADRPALGQRSFQTVKDPITGRSSVELLPTFDTITYRELRERATAIASDLAHHPQAPAKPGDFLASIGFISVDYVAIDIAGVFAGLTAVPLQTGATLATLTAITAETAPTLFAASIEHLPTAVDAVLATPSVRRLLVFDYRAGSDEDREAVEAAKRKIADAGSSVLVDVLDEVIARGKSAPKAPLPPATDAGDDSLSLLIYTSGSTGTPKGAMYPERNVAHFWGGVWAAAFDEDAAPPVPAINITFLPLSHVASRLSLMPTLARGGLMHFVAKSDLSTLFEDLKLARPTNLFLVPRVVEMLYQHYQSELDRRGVQDGTREAEAVKDDLRTGLLGGRILTAGFGSAPLSAELAGFIESLLQIHLVDGYGSTEAGPVWRDGYLVKPPVTDYKLIDVPELGYFSTDSPHPRGELAIKTQTILPGYYKRPETTAEVFDEDGFYLTGDVVAQIGPEQFAYVDRRKNVLKLSQGEFVTLAKLEAAYSSSPLVRQLFVYGSSERSYLLAVIVPTPDALKKFGVGEAAKAALGESLQKIARDEGLQSYEVPRDFIIETDPFTVENGLLSDARKSLRPKLKEHYGERLEAMYKELADGQANELRDIRRGVQQRPTLETVRRAAAAMLGASAAEIKPDAHFTDLGGDSLSALTFSNFLHDLFEVDVPVGVIVSAANTLGSVAEHIDAQLAGGRARPTFATVHGKGSTTIKASDLTLDKFIDEQTLEAAKHLPKPADPPRTVLLTGANGWLGRFLALEWLERLAPAGGKLITIVRGKDAAQAKARLDAAYESGDPKLAGHYQDLAATTLEVLAGDFSEPRLGLDEATWNRLADEVDFISHPGALVNHVLPYNQLFGPNVAGVAEIIKLAITTRIKPVTYLSTVAVAAGVEPSALDEDGDIRTVSAERSVDEGYANGYGNSKWGGEVLLREAHDRTGLPVRVFRSDMILAHQKYTGQVNATDQFTRLVQSLLATGLAPKSFYELDAQGNRQRAHYDGIPVDFTAESITTLGGDGLEGYRSYNVFNPHRDGVGLDEFVDWLIEAGHPITRIDDYDQWLSRFETSLRGLPESKRQASVLPLLHAFARPGPAVDGSPFRNTVFRTDVQKAKIGAEHDIPHLGKALVLKYADDIKQLGLL |  | accepted adipate semialdehyde as substrate
